Among the data in a protein production outcome set (Wang et al. 2014) are protein production values, retold here.

This data set can be described thus: label from the status in PepcDB records.

As for “MDKHHSKKAILKLTLITTSILLMHSNQVNAEEQELKNQEQSPVIANVAQQPSPSVTTNTVEKTSVTAASASNTAKEMGDTSVKNDKTEDELLEELSKNLDTSNLGADLEEEYPSKPETTNNKESNVVTNASTAIAQKVPSAYEEVKPESKSSLAVLDTSKITKLQAITQRGKGNVVAIIDTGFDINHDIFRLDSPKDDKHSFKTKTEFEELKAKHNITYGKWVNDKIVFAHNYANNTETVADIAAAMKDGYGSEAKNISHGTHVAGIFVGNSKRPAINGLLLEGAAPNAQVLLMRIPDKIDSDKFGEAYAKAITDAVNLGAKTINMSIGKTADSLIALNDKVKLALKLASEKGVAVVVAAGNEGAFGMDYSKPLSTNPDYGTVNSPAISEDTLSVASYESLKTISEVVETTIEGKLVKLPIVTSKPFDKGKAYDVVYANYGAKKDFEGKDFKGKIALIERGGGLDFMTKITHATNAGVVGIVIFNDQEKRGNFLIPYRELPVGIISKVDGERIKNTSSQLTFNQSFEVVDSQGGNRMLEQSSWGVTAEGAIKPDVTASGFEIYSSTYNNQYQTMSGTSMASPHVAGLMTMLQSHLAEKYKGMNLDSKKLLELSKNILMSSATALYSEEDKAFYSPRQQGAGVVDAEKAIQAQYYITGNDGKAKINLKRMGDKFDITVTIHKLVEGVKELYYQANVATEQVNKGKFALKPQALLDTNWQKVILRDKETQVRFTIDASQFSQKLKEQMANGYFLEGFVRFKEAKDSNQELMSIPFVGFNGDFANLQALETPIYKTLSKGSFYYKPNDTTHKDQLEYNESAPFESNNYTALLTQSASWGYVDYVKNGGELELAPESPKRIILGTFENKVEDKTIHLLERDAANNPYFAISPNKDGNRDEITPQATFLRNVKDISAQVLDQNGNVIWQSKVLPSYRKNFHNNPKQSDGHYRMDALQWSGLDKDGKVVADGFYTYRLRYTPVAEGANSQESDFKVQVSTKSPNLPSRAQFDETNRTLSLAMPKESSYVPTYRLQLVLSHVVKDEEYGDETSYHYFHIDQEGKVTLPKTVKIGESEVAVDPKALTLVVEDKAGNFATVKLSDLLNKAVVSEKENAIVISNSFKYFDNLKKEPMFISKKEKVVNKNLEEIILVKPQTTVTTQSLSKEITKSGNEKVLTSTNNNSSRVAKIISPKHNGDSVNHTLPSTSDRATNGLFVGTLALLSSLLLYLKPKKTKNNSK”, the protein production result is “failed”.
Regarding “MDKIRSLRFFIATLEGGSFAAAAKAYGTDPSTVSKAIHRLESDLGIQLFQRSTRQIRLTEAVRRYANTARFVLDELAACEDSLKSHNDALSGLLKINVPVSYGRLYIRPLLKEFCRRYPSITIDIHYDDAYVDIIEQGIDVSIRSGVVQDSQLIVRQLSPIDFIICGSQDYLTRHGVPSGPDAFNDHSWVRFRFKQTGKLLPIRMPEPDGTSEYNPERNFIVNDGESMAELCAEGLGLTQIPHFIARDWLKVGRLVPIFPSMRQAGNGVYLLYANREYVPARVRVFIDFITQAIQDMDETPFHTWAETLPIYQPNQGD”, the protein production result is given as “failed”.
As to “MDKKPSILIFIVAYNAESTIENVLMRIPADLLDDFDAEVLVIDDQSSDDTVLRCAETIQSGKIRFKTNVLVNPENQGYGGNQKVGYQYAIEHDFDCVALLHGDGQYAPEYLRDLITPVTKGEAEAVFGSRMMTPFGALKGGMPAYKFVGNKILTLFQNIMLKTSLSEFHSGYRAYSVKALKQIPFHLNTPDFHFDTEIIIQLILWGFRIAERPIPTYYGDEICYVNGLKYALDVVITTTKARMQRLGLFHECKYEVIHPHNSNGYPEAKLSIKSPSGNRILEHHHHHH”, the protein production entry is given as “failed”.
As to “MDKLDAMQVYVAVVDAHSFARAAEVLGQPRSTVSRVVKELEAWLGAQLLQRTTRKLSVTAEGRRYYEECKRLLAEMAAMEASFPGRSAQPAGRFKVGMPQSLARHCILPRIGEFLQQYPDLELILCSSDNVEDIIQEGFDCVIRTGRIEDSTTLVARPLARYRWMVLASPAWLAAHGRPQSIDELHQHRAVGYLNHRTGRTIDWLFSLDEGDCAIRMRETLVVDDTDAYIQAGIQGLGLIRVASYLAQPYLQSGALVACLEQAASDLPLSLVYPQNRYLPPAVRAFYDWSRRVLQPPHSEA”, the protein production entry is “failed”.
To “MDKNETRATIIRIGTDLISRQGFNATGIDAVLKEAGVPKGSFYYYFRSKEEFGLAVIDHFAERYDQRLDTFLNDEEVTPLNRIRNYLESALARLEQNQCSKGCLIGNLGQELADQHERFRGRLDEIFRSWKDRFAACLREAQRGGELAPELDAGVAAGFILSGLEGAILRTKVMKSPQPLRDFIEILFASVLRRQA” belongs “not failed”; to “MDKNIKNKAEELIKDLIQKIDNNPYDAQAYYNLGVALNDAHSAEQAEELFKKALNIFANSKEKSSLMHYGLGNVYYTNSIYDKAIVEFKKVQSEKLKQDSMLMMAQAYYAQENYPQAMMYALTVSENTKHNVDAISLLASCFMATGDLTNARKYYLKALEYDKDNVEVLFQLGVIELSLSGEAGKYFDRVKNLDNEYYKKMQQRLADVQRFLMTQKKGKSDE”, “failed”.
As to “MDKNNLEDLTGKKILRNGFGGLRLEYGTIFLDVGLFTYIVLILSIFFFLVERWFLGALTFVLHVPLLLLGIWCGER”, the protein production entry was “failed”.
“MDKPVVRDAALLIFRAVLGVIFVAHGWEKLFISGVTKTTGQFSAWGVPQPKLSVWITSISELLGGAFLVVGLLTTFVAGALALLIAAAIYFVHLSSGFFTVENGIEFPLLIIVSLLVIVVFGSGRASVDGVLTRG”: the protein production result is recorded as “failed”.
Consider “MDKQKEQLSIEVARLYYQSDLGQQEIATRLGVSRPTVSRLLQNAKLKGYVKIEVQDPFSNLTELANALKEKYQLKNVTVAFSQTNDYSEISKQISQSAAEYLEEIIHDDDILGVSWGTTMYKIAQKLSPQKAEIKVVQLKGGVSHSDVNTYAAETLALFGAAYDTAPVSLPLPVVLDNPLAKQMVEADRHIKNIIELGKKANIAIFTVGTVREEALLFRLGYFSDEEKIRLKEKAVGDICSRFFTINGEIADEKMNERTIGIDLQDLKQKETAILVAGGERKIKAIHGALRGGYANHFITDQYTAKQLLEQNFSN”, for which the protein production entry is “failed”.
To “MDKQQRGIQVIRIWLGVTMLIHGVMKVTSLEDTLAFFASIGLPSLFVYGVAAIELIGGLFMIIGFLIPLVSVGFIAVLVGAIFSFGLASGFSGYEYELFLAITSLAILVSYADKKYLTLKLYF” belongs “failed”.
As to “MDKYPFLREAGSSFKDRDVTKMSDLIATWDGQDIKGPALIGVPLSKSSISHSGASFAPGTIRQALKHSSAYSAELGEHVVSELLYDLGDIDIHVTDIVKSHHHIFQTMHALLSDHPDWVPLILGGDNSISYSTIKAIAQTKGTTAVIQFDAHHDVRNTEDGGPTNGTPFRRLLDEEIIEGQHLIQLGIREFSNSQAYEAYAKKHNVNIHTMDMIREKGLIPTIKEILPVVQDKTDFIFISVDMDVLDQSHAPGCPAIGPGGLYTDELLEAVKYIAQQPNVAGIEIVEVDPTLDFRDMTSRAAAHVLLHALKGMKLSPFK”, the protein production result is recorded as “not failed”.
With “MDLDVYVSAHRAEWDRLDDLLRRRRRLTGAEADELVALYQRTATHLSVIQSSAPDPQLTGRLSQLVARARSAVTGTRRASWRDVTRFLAYGFPAAVYRARHWWVPTALLSTVTAVLLGWWIGTHPEVQSSIAAPSELRALTRPGGEYETYYSSHPAASFAAQVWTNNAQAAAMCLVLGIFLGLPVLWILFQNMLNLGVGLGLMSSAGRLDTFLGLVLPHGLLELTAVFVAAGTGLRLGWTLIDPGPRSRRTALAEEGRAALGMAVGLALVLFVSGAIEGFVTPSGLPTWARIGIGIAAELAFLTYVYVLGGRATRAGDTGDIEAAERSATVPTAA”, the protein production result was “failed”.
“MDLHGCAKNQVDAELIIGIMENLSWKNTSDPDEADLIIVNSCGFINSAKEESINAVLQAKAAHPKAKVLLAGCLAERYADILKNDLPEADGIFGNGNLSLLPQLIDSMFPKKTSDEKFIEKTLVPPQIGICGGERPKILNFPRSTYIKITEGCDNFCSFCAIPIIRGRLRSRPIKDICDEIKTFLKKSFYEFNLIGQDLAAYQTGKDDLSEDELHRENCSGLALLLKSISKIKGNFKIRLLYIHPDHFPLDILPIMTADKRFLPYFDIPFQSGAQKIIRAMNRNGAAEVYLDIIKNIREAFEKTNSPYGEPQIRTTFLVGFPGETDEDFNETIKFLKELRPLWSGGFTYSREEDTPSYSFKGKVPKKTAEARLAEIQNAQTSITEKKLDSFIGKEIEVLVEELIQAEDKTFLALGRAWFQAPEVDGAVVLNFNLNKKDIDGNPIAPGSIVKARIAARNGFDLEAVAV”: the protein production result is “failed”.
Turning to “MDLHSLCVDSHALRRDGMRFLHTADWQLGMTRHFLAGDAQPRYSAARRDAVAGLKALAADVGAEFVVVAGDVFEHNQLAPQIVGQSLEAMRVIGLPVYLLPGNHDPLDASSVYTSTLFRAERPDNVVVLDRAGVHEVRPGVQIVAAPWRSKAPTTDPVAEVLAGLPTDAAIRLLVAHGGVDALDPDHDKPSLIRLAALDDALTRQAIHYVALGDKHSLTQVGSSGRVWYSGAPEVTNFDDVEPDPGHVLVVDIDESDPRHPVTVDARRIGRWRFVTLHHQVDTSRDIADLDLNLDLMTDKDRTVVRLALTGSLTVTDRAALDTCLDKYARLFAWLGLWERHTDLAVIPVDAEFTDLGIGGFAAAAVDELVATARGGDDESAVDAQAALALLLRLADRGAALEHHHHHH”, the protein production result was “failed”.
With “MDLICMYVFKGEESFGESIDVYGDYLIVKVGTEFLAVPKKSIKSVEDGRIVIGEFDEEEARELGRKWLEEKSKPVTLEELKSYGFGEEGE” the entry was “not failed”; with “MDLIEPAVRVFLGVFFLMIGLQFAARTLGLYSRLGFSHINYGKTGTATWWHRHTFNLFRAAILLMCLARIWVDLDAWLGVFPLLYHWPVLLAGAVLLLVSYTSVNYLQAYMHEDWRSGIDDHHGSGHLLTDGPFGRSRNPLFLAVMTGQLGFFLALPSVFSLVCLVTGVLVIMRQAREEEKALAKRFGEQYEAYCKRVPRWF”, “failed”; with “MDLKESQEFSGLIAGKPRISYQNDYGGHRTNLHLLDSRLWIILSGQAAILGFCGNTVLAEDESMKSKSGDNMDESGNTGLEKIEDGSVVSNIHTSKWRVFTDSGRDYFFQGKLEPAERLFGSAIQEAKEGFGEKDPHVASACNNLAELYRVKKEFDKAEPLYLEAVSILEEFYGPDDVRVGATLHNLGQLYLVQRKLEEARACYEIRRCVFAVISYVKNYDELES”, “failed”.
“MDLSTAFPTLVTDLPAAFSMSVVGGVGLAMIVLDAFRNDHPAIPWLGVAALGVSAVWEITHLGAPPSTVFFETLRTGGFVAFINLIILLTGLATILLSVPYLNQLRYDYGEVYALIMFCTVGMIMLGSANNMVSIFLGLETMSVCLYVLTGFIREDEGAVESALKYFLLGAFSTGFFLYGIALMYGATGTMALPAMAAAELGTLSTRLLFWGGFALFLVGFFFKVSAAPFHMWTPDVYQGAPTPLTGYMSTATKAAAFAALILVLVHAVPGGEWQLSVAAVAVLTMVIGNVMALAQTNVKRLLAYSSIAHAGYLLVGLSAGTSAGYAGALFYLLVYAVMNIGAFGVMSMLEWDGKEGREQTLSSLAGIANDRPVLGSTMGVFMLSLIGFPPLGGFIGKYLVFAPAVDAGLTWLVVIGVLMSALSAYYYLRVVYVFWMQSADEVAATDPVRAAAFPRATVAATGTLVVCAVALVVLGVFFGGVLETTLGFFETTAMATAP”: the protein production entry is “failed”.
On to “MDLTISNELTGEIYGPIEVSEDMALTDLIALLQADCGFDKTKHDLYYNMDILDSNRTQSLKELGLKTDDLLLIRGKISNSIQTDAATLSDEAFIEQFRQELLNNQMLRSQLILQIPGLNDLVNDPLLFRERLGPLILQRRYGGYNTAMNPFGIPQDEYTRLMANPDDPDNKKRIAELLDQQAIDEQLRNAIEYTPEMFTQVPMLYINIEINNYPVKAFVDTGAQTTIMSTRLAKKTGLSRMIDKRFIGEARGVGTGKIIGRIHQAQVKIETQYIPCSFTVLDTDIDVLIGLDMLKRHLACVDLKENVLRIAEVETSFLSEAEIPKSFQEGLPAPTSVTTSSDKPLTPTKTSSTLPPQPGAVPALAPRTGMGPTPTGRSTAGATTATGRTFPEQTIKQLMDLGFPRDAVVKALKQTNGNAEFAASLLFQ”, for which the protein production entry is “failed”.
